{"source": "patent US20080171347A1", "target": "mouse synaptosomes (synaptosome preparation carrying the BoNT/A acceptor complex)"}
{"substance": "inactivated BoNT/A (toxoid) (from UniProt P0DPI1 2-1296)", "values": [{"measurement": "percent inhibition (maximum)", "result": 98, "unit": "%"}]}
